Measured values reported in PMC12924673 (Science (New York, N.Y.), 2024).
Each block holds one molecule with its values, some of them ahead of it.

What was measured:
[1] = biological target: recombinant ZnF0 of BCL11A; assay: crystal structure
[2] = biological target: recombinant ZnF0 of BCL11A; assay: dynamic light scattering
[3] = biological target: recombinant ZnF0 of BCL11A; assay: native gel or EMSA
[4] = biological target: recombinant ZnF0 of BCL11A; assay: AUC
[5] = biological target: the molecule itself; assay: native gel or EMSA

stoichiometry N [1]: 4
stoichiometry N [2]: 4
stoichiometry N [3]: 4
stoichiometry N [4]: 4
Molecule: recombinant ZnF0 of BCL11A (domain or fragment)

B1: full-length (FL) BCL11A, recombinant (natural protein, UniProt Q9H165-1 1-835, looked up)
chain: MSRRKQGKPQHLSKREFSPEPLEAILTDDEPDHGPLGAPEGDHDLLTCGQCQMNFPLGDILIFIEHKRKQCNGSLCLEKAVDKPPSPSPIEMKKASNPVEVGIQVTPEDDDCLSTSSRGICPKQEHIADKLLHWRGLSSPRSAHGALIPTPGMSAEYAPQGICKDEPSSYTCTTCKQPFTSAWFLLQHAQNTHGLRIYLESEHGSPLTPRVGIPSGLGAECPSQPPLHGIHIADNNPFNLLRIPGSVSREASGLAEGRFPPTPPLFSPPPRHHLDPHRIERLGAEEMALATHHPSAFDRVLRLNPMAMEPPAMDFSRRLRELAGNTSSPPLSPGRPSPMQRLLQPFQPGSKPPFLATPPLPPLQSAPPPSQPPVKSKSCEFCGKTFKFQSNLVVHRRSHTGEKPYKCNLCDHACTQASKLKRHMKTHMHKSSPMTVKSDDGLSTASSPEPGTSDLVGSASSALKSVVAKFKSENDPNLIPENGDEEEEEDDEEEEEEEEEEEEELTESERVDYGFGLSLEAARHHENSSRGAVVGVGDESRALPDVMQGMVLSSMQHFSEAFHQVLGEKHKRGHLAEAEGHRDTCDEDSVAGESDRIDDGTVNGRGCSPGESASGGLSKKLLLGSPSSLSPFSKRIKLEKEFDLPPAAMPNTENVYSQWLAGYAASRQLKDPFLSFGDSRQSPFASSSEHSSENGSLRFSTPPGELDGGISGRSGTGSGGSTPHISGPGPGRPSSKEGRRSDTCEYCGKVFKNCSNLTVHRRSHTGERPYKCELCNYACAQSSKLTRHMKTHGQVGKDVYKCEICKMPFSVYSTLEKHMKKWHSDRVLNNDIKTE
binding result [5]: binds
